Test results as given in publication PMC11405040, “PRMT5-mediated FUBP1 methylation accelerates prostate cancer progression” (The Journal of Clinical Investigation, 2024).

Target: T1, FLAG-PRMT5 (UniProt O14744 1-637)
T1 construct: PRMT5, wild type; Enriched from HEK293T lysate by one FLAG step; cellular partners such as MEP50 may have come along (surmise); also called FLAG-PRMT5^WT; FLAG-tagged PRMT5; source: HEK293T, transfected, immunopurified on FLAG beads and eluted with FLAG peptide
Experiment: pull-down; His-FUBP1 (from E. coli) and FLAG-PRMT5 (enriched from HEK293T lysate) in vitro, with the PUBLISH peptide as competitor
Settings: both partners purified

T1 sequence (O14744 whole entry): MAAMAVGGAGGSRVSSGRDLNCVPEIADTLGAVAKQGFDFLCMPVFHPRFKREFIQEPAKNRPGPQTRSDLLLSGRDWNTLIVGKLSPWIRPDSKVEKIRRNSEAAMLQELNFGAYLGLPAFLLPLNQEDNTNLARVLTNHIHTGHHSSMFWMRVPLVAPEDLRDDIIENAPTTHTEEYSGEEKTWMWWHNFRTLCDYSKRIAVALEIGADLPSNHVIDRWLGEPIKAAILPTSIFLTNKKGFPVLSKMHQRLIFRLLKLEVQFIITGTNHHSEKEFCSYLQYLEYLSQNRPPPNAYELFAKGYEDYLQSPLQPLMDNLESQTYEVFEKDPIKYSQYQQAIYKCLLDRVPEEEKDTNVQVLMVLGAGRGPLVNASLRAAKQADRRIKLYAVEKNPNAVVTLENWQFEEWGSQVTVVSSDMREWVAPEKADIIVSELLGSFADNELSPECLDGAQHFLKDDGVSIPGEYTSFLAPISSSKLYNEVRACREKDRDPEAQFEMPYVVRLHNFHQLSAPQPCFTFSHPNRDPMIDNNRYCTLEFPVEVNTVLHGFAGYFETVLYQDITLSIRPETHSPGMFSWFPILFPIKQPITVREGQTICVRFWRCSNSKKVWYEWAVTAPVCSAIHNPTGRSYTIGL

B1: PRMT5-mediated FUBP1 methylation abolishing (PUBLISH) peptide (peptide, UniProt Q96AE4 353-367, looked up)
peptide: GPGPGGRGRGRGQGN
notes: FUBP1 amino acids 353-367, with R359/R361/R363; For cells it was delivered as BPAE/peptide nanocomplexes; also called PUBLISH^WT; source: synthetic peptide
B1: binds.
